The values below come from publication PMC4710668, “Bioactivation of food genotoxicants 5-hydroxymethylfurfural and furfuryl alcohol by sulfotransferases from human, mouse and rat: a comparative study” (Archives of Toxicology, 2014).

For orientation: kcat/Km means the turnover number divided by the Michaelis constant.

Test in all cases: HMF sulfoconjugation assay
Holding throughout (details): other: catalytic efficiency of HMF sulfoconjugation; pH 7.4

Data set [1] concerns T1, O=Cc1ccc(CO)o1.
T1 construct: made in house; host or cells: Salmonella typhimurium TA1538 (cytosolic fraction, enzyme not purified)
The data set is classed as biochemical, rat. How it is done: (§1) Cytosolic fractions containing individual SULT forms were prepared from transgenic S. typhimurium TA1538. Table S1 in the Supplementary Material provides a summary of the thirty SULTs used in the current study together with references describing the cloning of the respective S. typhimurium TA1538 strains. The expressed SULT forms are denoted with the prefixes h, m and r for human, mouse and rat enzymes, respectively. Bacteria were grown in Luria Broth medium containing ampicillin (100 µg/ml) by stirring for 8 h at 200 revolutions/min at 37 °C. The bacterial suspensions were centrifuged at 5,000 g for 10 min. […] The protein concentrations were determined according to a bicinchoninic acid (BCA) assay protocol. […]
(§2) The reactions were conducted in mixtures of 100 µl containing 25–200 µg protein, 50 mM potassium phosphate buffer (pH 7.4), 5 mM MgCl2, 50 µM PAPS and different concentrations of HMF at 37 °C. Preliminary experiments ensured that measurements were recorded under ‘linear’ conditions, i.e., doubling of protein concentration or incubation time was doubling the amount of sulfate ester formed. […]
(§3) SMF concentrations of the clear supernatants were analyzed by UPLC-MS/MS. The protocol was adapted from the quantification of SMF in plasma samples of HMF-treated mice (Monien et al. [2009]). […]

Data set [2] has as its system T2, O=Cc1ccc(CO)o1.
T2 construct: made in house; host or cells: Salmonella typhimurium TA1538 (cytosolic fraction, not purified)
Format: biochemical, human. Here is the method:
as §1, §2, §3

Data set [3] has as its system T1, O=Cc1ccc(CO)o1. Format: biochemical, mouse. Here is the method: as §1, §2, §3

Sequence of mSult1b1 (Mus musculus) (chain, as listed by the source): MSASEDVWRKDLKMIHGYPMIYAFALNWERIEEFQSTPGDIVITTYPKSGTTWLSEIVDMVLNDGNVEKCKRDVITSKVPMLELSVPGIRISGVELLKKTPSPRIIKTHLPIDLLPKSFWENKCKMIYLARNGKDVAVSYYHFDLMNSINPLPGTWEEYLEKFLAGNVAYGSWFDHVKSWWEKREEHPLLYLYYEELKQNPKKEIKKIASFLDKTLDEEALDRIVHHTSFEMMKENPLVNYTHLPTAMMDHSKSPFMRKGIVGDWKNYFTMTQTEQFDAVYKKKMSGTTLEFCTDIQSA
Sequence of rSult1b1 (Rattus norvegicus) (chain, as listed by the source): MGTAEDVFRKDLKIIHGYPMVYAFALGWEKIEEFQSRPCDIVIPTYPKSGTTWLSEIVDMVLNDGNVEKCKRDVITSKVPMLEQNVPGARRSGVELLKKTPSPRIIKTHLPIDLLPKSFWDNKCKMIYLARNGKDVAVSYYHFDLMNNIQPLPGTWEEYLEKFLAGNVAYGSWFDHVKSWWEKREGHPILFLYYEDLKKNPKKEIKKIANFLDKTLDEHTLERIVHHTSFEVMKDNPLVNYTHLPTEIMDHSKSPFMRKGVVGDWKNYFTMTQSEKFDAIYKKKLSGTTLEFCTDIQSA
Sequence of hSULT1B1 (Homo sapiens) (chain, as listed by the source): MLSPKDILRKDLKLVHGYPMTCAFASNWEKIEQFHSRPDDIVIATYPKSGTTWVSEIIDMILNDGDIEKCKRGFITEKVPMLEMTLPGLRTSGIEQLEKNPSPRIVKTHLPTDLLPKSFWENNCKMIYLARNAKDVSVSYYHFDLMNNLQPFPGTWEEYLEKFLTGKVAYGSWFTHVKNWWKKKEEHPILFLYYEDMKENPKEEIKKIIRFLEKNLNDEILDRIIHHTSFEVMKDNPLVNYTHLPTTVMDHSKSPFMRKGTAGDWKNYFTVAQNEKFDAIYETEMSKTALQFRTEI

With rSult1b1 (Rattus norvegicus), the kcat/Km in the data set with O=Cc1ccc(CO)o1 [1] is 0.09 M⁻¹ s⁻¹.
hSULT1B1 (Homo sapiens): the specificity constant (kcat/Km) in the data set with O=Cc1ccc(CO)o1 [2] came out at 0.31 M⁻¹ s⁻¹.
Regarding mSult1b1 (Mus musculus), the kcat/Km in the data set with O=Cc1ccc(CO)o1 [3] stood at 0.36 M⁻¹ s⁻¹.
